According to doi:10.1101/2020.02.28.969287:
Read-outs that look alike come from different tables or passages of the source. Blank lines part the entries; values can stand above or below the substance they belong to.

How the values were obtained:
[1] = target: potassium channel KcsA from Streptomyces lividans (pET-28a construct, N-terminal His-tag) (Streptomyces lividans) (UniProt P0A334); assay: mass photometry
[2] = target: potassium channel KcsA from Streptomyces lividans (pET-28a construct, N-terminal His-tag) (Streptomyces lividans) (UniProt P0A334); assay: mass photometry; remark: listed apart in the source
[3] = target: E. coli bo3 oxidase (E. coli) (UniProt P0ABJ3); assay: SEC-MALS
[4] = target: E. coli bo3 oxidase (E. coli) (UniProt P0ABJ3); assay: mass photometry
[5] = target: E. coli outer membrane protein F (OmpF) (E. coli) (UniProt P02931); assay: native MS
[6] = target: E. coli outer membrane protein F (OmpF) (E. coli) (UniProt P02931); assay: mass photometry
[7] = target: KcsA (pT7-KcsA construct, N-terminal His-tag) in native SMA nanodiscs (Streptomyces lividans) (UniProt P0A334); assay: mass photometry + other: lipid-to-protein ratio

Substance: potassium channel KcsA from Streptomyces lividans (pET-28a construct, N-terminal His-tag) (from UniProt P0A334 1-160) (natural protein)
stoichiometry N [1]: 4
stoichiometry N [2]: 4

relative abundance of dimers [3]: 28%
relative abundance of monomers [3]: 72%
stoichiometry N [3]: 2
relative abundance of dimers [4]: 20%
relative abundance of monomers [4]: 80%
stoichiometry N [4]: 2
Substance: E. coli bo3 oxidase (from UniProt P0ABJ3 1-204) (complex)

stoichiometry N [5]: 3
stoichiometry N [6]: 3
Substance: E. coli outer membrane protein F (OmpF) (from UniProt P02931 23-362) (natural protein)

Substance: KcsA (pT7-KcsA construct, N-terminal His-tag) in native SMA nanodiscs (from UniProt P0A334 1-160) (natural protein)
stoichiometry N [7]: 8
